In patent US20230174659A1 (GENERAL HOSPITAL, published 2023):

What was measured:
[1] = molecular target: T1, Amino acid residues 58-77 of human TNFR2 (human); experiment: ELISA on TNFR2 peptide, antibody alone
T1 peptide: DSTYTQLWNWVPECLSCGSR
Protocol: (§1) ELISA was also used to determine linear epitopes present on the extracellular surface of TNFR2. Linear peptides corresponding to various regions within the TNFR2 primary sequence were purchased from GenScript (Piscataway, NJ), diluted in coating buffer and placed on Immulon 4HBX Flat Bottom Microtiter Plates (Thermo Scientific) at a concentration of 1 µg/well. Primary TNFR2 agonistic antibodies (0.1 µg/well) were incubated with substrates. Secondary antibodies against rodent IgG were used to detect the primary antibodies. Absorbance was measured using the SPECTRAMAX^{®} 190 Absorbance Plate Reader and analyzed with SoftMax Pro 6.3 (Molecular Devices).

[2] = molecular target: T2, Amino acid residues 17-36 of human TNFR2 (human); experiment: ELISA on TNFR2 peptide, antibody alone
T2 peptide: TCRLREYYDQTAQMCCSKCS
Protocol: as §1

[3] = molecular target: T3, Amino acid residues 9-28 of human TNFR2 (human); experiment: ELISA on TNFR2 peptide, antibody alone
T3 peptide: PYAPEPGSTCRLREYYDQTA
Protocol: as §1

[4] = molecular target: T4, Amino acid residues 42-61 of human TNFR2 (human); experiment: ELISA on TNFR2 peptide, antibody alone
T4 peptide: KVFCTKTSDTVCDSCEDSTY
Protocol: as §1

[5] = molecular target: T5, Amino acid residues 50-69 of human TNFR2 (human); experiment: ELISA on TNFR2 peptide, antibody alone
T5 peptide: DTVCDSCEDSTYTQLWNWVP
Protocol: as §1

[6] = molecular target: T6, Amino acid residues 170-189 of human TNFR2 (human); experiment: ELISA on TNFR2 peptide, antibody alone
T6 peptide: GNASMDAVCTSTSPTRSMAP
Protocol: as §1

[7] = molecular target: T7, Amino acid residues 114-133 of human TNFR2 (human); experiment: ELISA, immobilised TNFR2 peptide fragments, TNFRAG1 as primary antibody
T7 peptide: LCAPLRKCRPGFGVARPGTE
Protocol: (§2) The binding of antibody to each of the synthesized peptides was tested in an ELISA format. Surface-immobilized peptide arrays were incubated with primary antibody solution (overnight at 4° C.). After washing, the peptide arrays were incubated with a 1/1000 dilution of an appropriate antibody peroxidase conjugate (SBA) for one hour at 25° C. After washing, the peroxidase substrate 2,2′-azino-di-3- ethylbenzthiazoline sulfonate (ABTS) and 2 µl/ml of 3 percent H₂O₂ were added. After one hour, the color development was measured. The color development was quantified with a charge coupled device (CCD) - camera and an image processing system. The values obtained from the CCD camera range from 0 to 3000 mAU, similar to a standard 96-well plate ELISA-reader.
(§3) Affinity is reported qualitatively using a categorical four-point scale, such that an affinity score of “0” denotes lowest affinity and an affinity score of “4” denotes highest affinity.

[8] = molecular target: T8, Amino acid residues 130-149 of human TNFR2 (human); experiment: as above
T8 peptide: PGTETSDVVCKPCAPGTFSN
Protocol: as §2, §3

[9] = molecular target: T1, Amino acid residues 58-77 of human TNFR2; experiment: as above
Protocol: as §2, §3

[10] = molecular target: T2, Amino acid residues 17-36 of human TNFR2; experiment: as above
Protocol: as §2, §3

[11] = molecular target: T9, Amino acid residues 122-141 of human TNFR2 (human); experiment: as above
T9 peptide: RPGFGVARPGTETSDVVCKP
Protocol: as §2, §3

[12] = molecular target: T3, Amino acid residues 9-28 of human TNFR2; experiment: as above
Protocol: as §2, §3

[13] = molecular target: T10, Amino acid residues 138-157 of human TNFR2 (human); experiment: as above
T10 peptide: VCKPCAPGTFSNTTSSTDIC
Protocol: as §2, §3

[14] = molecular target: T4, Amino acid residues 42-61 of human TNFR2; experiment: as above
Protocol: as §2, §3

[15] = molecular target: T11, Amino acid residues 1-20 of human TNFR2 (human); experiment: as above
T11 peptide: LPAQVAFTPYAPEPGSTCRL
Protocol: as §2, §3

[16] = molecular target: T12, Amino acid residues 90-109 of human TNFR2 (human); experiment: as above
T12 peptide: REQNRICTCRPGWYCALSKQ
Protocol: as §2, §3

[17] = molecular target: T13, Amino acid residues 154-174 of human TNFR2 (human); experiment: as above
T13 construct: The printed range 154-174 spans 21 residues, but the printed peptide has 20
T13 peptide: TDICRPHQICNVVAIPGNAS
Protocol: as §2, §3

[18] = molecular target: T5, Amino acid residues 50-69 of human TNFR2; experiment: as above
Protocol: as §2, §3

[19] = molecular target: T6, Amino acid residues 170-189 of human …; experiment: as above
Protocol: as §2, §3

[20] = molecular target: T14, Amino acid residues 146-165 of human TNFR2 (human); experiment: as above
T14 peptide: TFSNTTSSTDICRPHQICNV
Protocol: as §2, §3

[21] = molecular target: T15, Amino acid residues 162-181 of human TNFR2 (human); experiment: as above
T15 peptide: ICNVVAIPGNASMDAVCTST
Protocol: as §2, §3

[22] = molecular target: T16, Amino acid residues 106-125 of human TNFR2 (human); experiment: ELISA on plate-coated linear peptide S04073; Affinity cell of this row is '2+-'
T16 sequence (peptide): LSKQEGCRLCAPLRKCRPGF

[23] = molecular target: T9, Amino acid residues 122-141 of human …; experiment: ELISA on plate-coated linear peptide S04075
Protocol: as §1

B1: agonistic TNFR2 antibody TNFRAG1 (antibody, V domains shown)
VH: EVQLQQFGAELVKPGASVKISCKASGYTFTDYNIDWVKQSHGKSLEWIGDINPNYDSTSYSQKFRGKATLTVDKSSSTAYMELRSLTSEDTAVYYCARGNSWYFDVWGAGTTVTVSS
VL: QIVLTQSPALMSASPGEKVTMTCSASSSVRYMYWYQQKPRSSPKPWIYLTSNLASGVPARFSGSGSGTSYSLTISSMEAEDAATYYCQQWSSNPLTFGAGTKLELK
notes: It was detected with secondary antibodies against rodent IgG; also called monoclonal TNFR2 antibody TNFRAG1; TNFR2 agonist antibody
[1]
  binding result: no binding
[2]
  binding result: no binding
[3]
  binding result: no binding
[4]
  binding result: no binding
[5]
  binding result: no binding
[6]
  binding result: no binding
[7]
  Affinity Score: 0 affinity score (0 lowest to 4 highest)
[8]
  Affinity Score: 0 affinity score (0 lowest to 4 highest)
[9]
  Affinity Score: 0 affinity score (0 lowest to 4 highest)
[10]
  Affinity Score: 0 affinity score (0 lowest to 4 highest)
[11]
  Affinity Score: 0 affinity score (0 lowest to 4 highest)
[12]
  Affinity Score: 0 affinity score (0 lowest to 4 highest)
[13]
  Affinity Score: 0 affinity score (0 lowest to 4 highest)
[14]
  Affinity Score: 0 affinity score (0 lowest to 4 highest)
[15]
  Affinity Score: 0 affinity score (0 lowest to 4 highest)
[16]
  Affinity Score: 2 affinity score (0 lowest to 4 highest)
[17]
  Affinity Score: 0 affinity score (0 lowest to 4 highest)
[18]
  Affinity Score: 0 affinity score (0 lowest to 4 highest)
[19]
  Affinity Score: 0 affinity score (0 lowest to 4 highest)
[20]
  Affinity Score: 0 affinity score (0 lowest to 4 highest)
[21]
  Affinity Score: 0 affinity score (0 lowest to 4 highest)
[22]
  Reading: 0
[23]
  binding result: no binding
